Source: patent US20220144957A1 (IMMUNECENT BIOTECHNOLOGY, published 2022)
Read-outs that look alike come from different tables or passages of the source. Blank lines part the entries; values can stand above or below the binder they belong to.

Tests used:
[1] = target: T1, human IFNAR1, full length (IFNAR1-aa1-557) (human, UniProt P17181 28-557); assay: flow cytometry on cells expressing human IFNAR1, MFI of PE
T1 construct: whole, on cells; Overexpressed on HEK293T cells from pIRES2-EGFP-IFNAR1; also used here for the human IFNAR1 of the IFN-I reporter cells and the cells of the virus assays; also called IFNAR1-WT; wild type IFNAR1
T1 sequence (looked up): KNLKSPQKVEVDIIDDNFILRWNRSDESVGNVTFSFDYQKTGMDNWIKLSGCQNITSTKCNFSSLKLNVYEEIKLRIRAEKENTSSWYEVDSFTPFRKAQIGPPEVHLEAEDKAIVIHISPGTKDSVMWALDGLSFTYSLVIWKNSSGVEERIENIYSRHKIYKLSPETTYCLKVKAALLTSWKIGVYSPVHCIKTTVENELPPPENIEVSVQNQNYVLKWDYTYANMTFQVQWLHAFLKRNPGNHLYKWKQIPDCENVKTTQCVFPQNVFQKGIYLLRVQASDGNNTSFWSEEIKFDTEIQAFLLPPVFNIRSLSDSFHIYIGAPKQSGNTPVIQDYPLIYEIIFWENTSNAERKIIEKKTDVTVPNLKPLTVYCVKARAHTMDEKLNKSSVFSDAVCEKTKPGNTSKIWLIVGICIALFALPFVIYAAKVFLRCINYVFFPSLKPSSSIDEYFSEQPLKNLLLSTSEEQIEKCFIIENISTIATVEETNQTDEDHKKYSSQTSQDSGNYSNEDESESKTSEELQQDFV

[2] = target: T2, Human IFNAR1 SD1-SD4 (human, UniProt P17181 28-436, limits assumed); assay: SPR (Biacore 8K), antibody captured on anti-human IgG Fc, antigen injected
T2 construct: domain: SD1-SD4; Antigen injected in the Biacore assay
T2 sequence (looked up): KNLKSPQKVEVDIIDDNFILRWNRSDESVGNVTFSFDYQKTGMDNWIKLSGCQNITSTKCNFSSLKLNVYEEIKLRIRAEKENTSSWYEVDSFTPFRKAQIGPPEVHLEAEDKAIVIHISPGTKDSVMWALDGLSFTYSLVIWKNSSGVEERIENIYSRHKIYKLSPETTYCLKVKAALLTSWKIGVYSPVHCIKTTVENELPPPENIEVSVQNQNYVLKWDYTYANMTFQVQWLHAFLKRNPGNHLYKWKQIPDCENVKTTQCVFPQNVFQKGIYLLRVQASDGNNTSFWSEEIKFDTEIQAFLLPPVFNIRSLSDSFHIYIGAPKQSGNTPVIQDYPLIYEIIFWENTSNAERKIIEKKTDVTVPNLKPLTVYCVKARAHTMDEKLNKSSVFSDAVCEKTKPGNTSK
Protocol: Preparation of a CM5 chip surface: Using HBS-EP+ (10 mM HEPES, 150 mM NaCl, 3 mM EDTA, 0.05% surfactant P20) as running buffer, both channel 1&2 of a CM5 sensor chip (GE Healthcare, BR-1000-30) were activated with a fresh mixture of 50 mM NHS and 200 mM EDC (1:1). Anti-human IgG Fc, 20 μg/ml in 10 mM NaOAc buffer (pH 5.0), was then passed over the activated surface of the two flow cells in each channel at 10 l/min (target around 10000 RU). […] Low flow rate was maintained over 2 hours for the equilibrium of the immobilized protein.
Measurement of binding kinetics: Each antibody was captured in flow cell FC2 in channel 1&2 around 250 RU respectively, using FC1 as the reference cell, followed by injection of antigen samples at varying concentrations. The signals with captured antibody subtracted from that without captured antibody were calculated with Biacore 8K evaluation software. The running buffer was HBS-EP+(10 mM HEPES, 150 mM NaCl, 3 mM EDTA, 0.05% surfactant P20).

[3] = target: T3, human IFNAR1 ECD (human, UniProt P17181 28-436); assay: ELISA, plate coated with human IFNAR1 ECD, anti-human IgG Fc-peroxidase, OD450
T3 construct: extracellular domain; Coated on ELISA plates at 5 ug/ml
T3 sequence (looked up): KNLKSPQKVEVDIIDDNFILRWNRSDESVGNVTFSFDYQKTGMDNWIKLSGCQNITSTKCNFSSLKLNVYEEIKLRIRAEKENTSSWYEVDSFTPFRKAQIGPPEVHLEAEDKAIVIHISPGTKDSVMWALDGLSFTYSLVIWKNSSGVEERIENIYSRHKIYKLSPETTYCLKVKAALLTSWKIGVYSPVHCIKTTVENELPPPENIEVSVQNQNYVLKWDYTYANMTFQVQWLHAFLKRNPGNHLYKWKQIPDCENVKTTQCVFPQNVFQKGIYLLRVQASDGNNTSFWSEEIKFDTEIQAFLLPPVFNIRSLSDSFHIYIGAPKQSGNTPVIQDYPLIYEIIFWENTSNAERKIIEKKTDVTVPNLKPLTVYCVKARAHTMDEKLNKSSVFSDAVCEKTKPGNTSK
Protocol: 96-well plates were coated with 100ul 5 ug/ml human IFNAR1 ECD in 1×PBS and incubate at 4° C. overnight. The plates were then washed with PBST (1×PBS+0.05% Tween20) for 3 times and blocked with the blocking buffer (1×PBS+0.05% Tween20+1% BSA) at RT for 2 hr. […] The plates were washed with PBST for 3 times, followed by addition of antibody (Anti-Human IgG (Fc specific)-Peroxidase antibody produced in goat, ZSGB-BIO) at 100ul/well and then incubated at RT for 1 hr. The plates were washed with PBST 5 times and then 100ul/well TMB was added and after 15 minutes, the plates were quenched with 50ul/well 2N H₂SO₄. The plates were read with Molecular device spectra max at 450 nm.

[4] = target: T1, human IFNAR1, full length …; assay: flow cytometry on cells expressing human IFNAR1, MFI of PE; remark: listed apart in the source
[5] = target: T4, human IFNAR1, full length (IFNAR1-aa1-557) (human) (UniProt P17181); assay: cell-based or functional assay
T4 sequence (looked up): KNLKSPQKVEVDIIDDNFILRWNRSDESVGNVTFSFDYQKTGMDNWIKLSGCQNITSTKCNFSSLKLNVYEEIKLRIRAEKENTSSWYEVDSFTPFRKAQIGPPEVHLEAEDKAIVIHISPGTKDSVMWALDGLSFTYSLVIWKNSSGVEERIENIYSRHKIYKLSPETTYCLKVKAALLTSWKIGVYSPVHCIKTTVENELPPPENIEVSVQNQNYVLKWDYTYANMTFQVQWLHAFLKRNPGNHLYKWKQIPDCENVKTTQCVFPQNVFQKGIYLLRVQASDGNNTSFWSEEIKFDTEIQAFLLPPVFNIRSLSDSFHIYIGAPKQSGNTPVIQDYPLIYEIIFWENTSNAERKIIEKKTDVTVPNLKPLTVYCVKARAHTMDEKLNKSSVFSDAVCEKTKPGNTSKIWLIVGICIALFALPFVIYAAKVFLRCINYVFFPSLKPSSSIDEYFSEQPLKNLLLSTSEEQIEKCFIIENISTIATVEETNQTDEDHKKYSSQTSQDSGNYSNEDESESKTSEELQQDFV

EC50 (read off the curve) [1]: ~0.06 mg/L
B1: Hu4-6-mut-2 (antibody, V domains shown)
VH: QVQLVQSGAEVKKPGASVKVSCKASGYTFTSYWMNWVRQAPGQGLEWMGKIDPSDSETHFNQKFRDRVTLTVDKSTSTVYMELSSLRSEDTAVYYCARGGRISFDYDAALDYWGQGTLVTVSS
VL: DIQMTQSPSSLSASVGDRVTITCKSSEVIYNRLAWYQQKPGKAPKLLIYGATSLETGVPSRFSGSGSGKDYTLTISSLQPEDFATYYCQQYWNKPFTFGQGTKLEIK
notes: Hu4-6 with T53S and S56T in VL (LCDR2)

EC50 (read off the curve) [1]: ~0.06 mg/L
B2: Hu4-6-mut-3 (antibody, V domains shown)
VH: QVQLVQSGAEVKKPGASVKVSCKASGYTFTSYWMNWVRQAPGQGLEWMGKIDPSDSETHFNQKFRDRVTLTVDKSTSTVYMELSSLRSEDTAVYYCARGGRISFDYDGALDYWGQGTLVTVSS
VL: DIQMTQSPSSLSASVGDRVTITCKSSEVIYNRLAWYQQKPGKAPKLLIYGATSLETGVPSRFSGSGSGKDYTLTISSLQPEDFATYYCQQYWNKPFTFGQGTKLEIK
notes: Hu4-6 with A108G in VH and T53S and S56T in VL

Kd [2]: 0.442 nM
koff [2]: 0.000209 s⁻¹
kon [2]: 472000 M⁻¹ s⁻¹
EC50 [3]: 0.00284 mg/L
Top [3]: 3.46 OD450
B3: Hu4-15 (antibody, V domains shown)
VH: QVQLVQSGAEVKKPGASVKVSCKASGYTFTSYWMNWVRQAPGQGLEWIGKIDPSDSETHFNQKFRDRVTLTVDKSTSTVYMELSSLRSEDTAVYYCARGGRISFDYDAALDYWGQGTLVTVSS
VL: DIQMTQSPSSLSASVGDRVTITCKSSEVIYNRLAWYQQKPGNAPKLLISGATTLESGVPSRFSGSGSGKDYTLTISSLQPEDFATYYCQQYWNKPFTFGQGTKLEIK
notes: Humanized 7G4 variant

EC50 (read off the curve) [1]: ~0.07 mg/L
B4: Hu4-6-mut-1 (antibody, V domains shown)
VH: QVQLVQSGAEVKKPGASVKVSCKASGYTFTSYWMNWVRQAPGQGLEWMGKIDPSDSETHFNQKFRDRVTLTVDKSTSTVYMELSSLRSEDTAVYYCARGGRISFDYDGALDYWGQGTLVTVSS
VL: DIQMTQSPSSLSASVGDRVTITCKSSEVIYNRLAWYQQKPGKAPKLLIYGATTLESGVPSRFSGSGSGKDYTLTISSLQPEDFATYYCQQYWNKPFTFGQGTKLEIK
notes: Hu4-6 with A108G in VH (HCDR3)

Kd [2]: 0.765 nM
koff [2]: 0.000349 s⁻¹
kon [2]: 456000 M⁻¹ s⁻¹
EC50 [3]: 0.00465 mg/L
Top [3]: 3.27 OD450
EC50 (read off the curve) [4]: ~0.04 mg/L
B5: 7G4 Chimeric (antibody, V domains shown)
VH: QVQLQQPGAELVKPGAPVKLSCKASGYTFTSYWMNWVRQRPGRGLEWIGKIDPSDSETHFNQKFRDKATLTVDKSSTTAYIQLSSLTSEDSAVYYCARGGRISFDYDAALDYWGQGTSVTVSS
VL: DILMTQSSSSFSVSLGDRVTITCKSSEVIYNRLAWFQQKPGNAPRLLISGATTLESGFPSRFSGSGSGKDYTLSITSLQIEDVSTYYCQQYWNKPFTFGSGTKLEVK

blocking effect on GFP expression induced by IFNα1 in IFN-I reporter cells (++ = greater than 80%) [5]: > 80%
blocking effect on GFP expression induced by IFNα2a in IFN-I reporter cells (++ = greater than 80%) [5]: > 80%
blocking effect on GFP expression induced by IFNα2b in IFN-I reporter cells (++ = greater than 80%) [5]: > 80%
blocking effect on GFP expression induced by IFNα4 in IFN-I reporter cells (++ = greater than 80%) [5]: > 80%
blocking effect on GFP expression induced by IFNα5 in IFN-I reporter cells (++ = greater than 80%) [5]: > 80%
blocking effect on GFP expression induced by IFNα6 in IFN-I reporter cells (++ = greater than 80%) [5]: > 80%
blocking effect on GFP expression induced by IFNα7 in IFN-I reporter cells (++ = greater than 80%) [5]: > 80%
blocking effect on GFP expression induced by IFNα8 in IFN-I reporter cells (++ = greater than 80%) [5]: > 80%
blocking effect on GFP expression induced by IFNα10 in IFN-I reporter cells (++ = greater than 80%) [5]: > 80%
blocking effect on GFP expression induced by IFNα14 in IFN-I reporter cells (++ = greater than 80%) [5]: > 80%
blocking effect on GFP expression induced by IFNα16 in IFN-I reporter cells (++ = greater than 80%) [5]: > 80%
blocking effect on GFP expression induced by IFNα17 in IFN-I reporter cells (++ = greater than 80%) [5]: > 80%
blocking effect on GFP expression induced by IFNα21 in IFN-I reporter cells (++ = greater than 80%) [5]: > 80%
blocking effect on GFP expression induced by IFNω in IFN-I reporter cells (++ = greater than 80%) [5]: > 80%
fold decrease in percentage of GFP positive reporter cells with serum from SLE patients [5]: 3 fold
percentage of GFP positive reporter cells with human IFNβ and 10 µg/mL antibody [5]: 20%
B6: IFNAR1 monoclonal antibody 10C2 (antibody, from another filing, V domains shown)
VH: QIQLVQSGPELKKPGETVKISCKASGYTFTNYGMNWVKQAPGKGLKWMGWINTYTGEPTYSDDFKGRFAFSLETSASTANLQINNLKDEDAATYFCAREGAIYYGDYVYFGVWGAGTTVTVSS
VL: DIVMTQSQKFMSTSVGDRVSITCKASQNVGTAVAWYQEKPGQSPKLLIYSASNRYTGVPDRFTGSGSGTAFTLTISNMQSEDLADYFCQQYYNYPLTFGAGTKLEVKR

blocking effect on GFP expression induced by IFNα1 in IFN-I reporter cells (++ = greater than 80%) [5]: > 80%
blocking effect on GFP expression induced by IFNα2a in IFN-I reporter cells (++ = greater than 80%) [5]: > 80%
blocking effect on GFP expression induced by IFNα2b in IFN-I reporter cells (++ = greater than 80%) [5]: > 80%
blocking effect on GFP expression induced by IFNα4 in IFN-I reporter cells (++ = greater than 80%) [5]: > 80%
blocking effect on GFP expression induced by IFNα5 in IFN-I reporter cells (++ = greater than 80%) [5]: > 80%
blocking effect on GFP expression induced by IFNα6 in IFN-I reporter cells (++ = greater than 80%) [5]: > 80%
blocking effect on GFP expression induced by IFNα7 in IFN-I reporter cells (++ = greater than 80%) [5]: > 80%
blocking effect on GFP expression induced by IFNα8 in IFN-I reporter cells (++ = greater than 80%) [5]: > 80%
blocking effect on GFP expression induced by IFNα10 in IFN-I reporter cells (++ = greater than 80%) [5]: > 80%
blocking effect on GFP expression induced by IFNα14 in IFN-I reporter cells (++ = greater than 80%) [5]: > 80%
blocking effect on GFP expression induced by IFNα16 in IFN-I reporter cells (++ = greater than 80%) [5]: > 80%
blocking effect on GFP expression induced by IFNα17 in IFN-I reporter cells (++ = greater than 80%) [5]: > 80%
blocking effect on GFP expression induced by IFNα21 in IFN-I reporter cells (++ = greater than 80%) [5]: > 80%
blocking effect on GFP expression induced by IFNω in IFN-I reporter cells (++ = greater than 80%) [5]: > 80%
B7: IFNAR1 monoclonal antibody 10C9 (antibody, from another filing, V domains shown)
VH: QIQLVQSGPELKKPGETVKISCKASGYTFTNYGVNWMKQAPGKGLKWMGWINTYTGEPTYADDFKGRFAFSLETSASTAYLQINNLKNEDTATYFCAREGVYYYGDWAWLAYWGQGTLVTVSA
VL: DIVMTQSQKFISTSVGDRVSVTCKASQNVGTNVAWYQQKPGQSPKTLIYSTSYRYNGVPDRFTGSGSGTDFTLTISNVQSEDLAEYFCQQYNSYYTFGGGTKLEIK
